PMC6659695
Blank lines part the entries; values can stand above or below the substance they belong to.

Columns and labels:
[1] = biological target: microtubules (paclitaxel-stabilized, polymerized from tubulin); experiment: optical tweezers unbinding-force assay (constant-pulling); motor held by its GFP on anti-GFP Fab-coated ~1-μm beads in an optical trap, MTs immobilized on the coverslip (biotin-streptavidin) and swept past the bead; single-molecule level; no nucleotide (apo, residual ATP 37.5 nM); non-reducing conditions; 30 mM HEPES, 2 mM MgAc2, 1 mM EGTA, 20 μM paclitaxel, pH 7.2; theoretical loading rate 5.6 pN/s; primary unbinding events only
Target sequence in this assay (P02550 whole entry, chain 1 of 2): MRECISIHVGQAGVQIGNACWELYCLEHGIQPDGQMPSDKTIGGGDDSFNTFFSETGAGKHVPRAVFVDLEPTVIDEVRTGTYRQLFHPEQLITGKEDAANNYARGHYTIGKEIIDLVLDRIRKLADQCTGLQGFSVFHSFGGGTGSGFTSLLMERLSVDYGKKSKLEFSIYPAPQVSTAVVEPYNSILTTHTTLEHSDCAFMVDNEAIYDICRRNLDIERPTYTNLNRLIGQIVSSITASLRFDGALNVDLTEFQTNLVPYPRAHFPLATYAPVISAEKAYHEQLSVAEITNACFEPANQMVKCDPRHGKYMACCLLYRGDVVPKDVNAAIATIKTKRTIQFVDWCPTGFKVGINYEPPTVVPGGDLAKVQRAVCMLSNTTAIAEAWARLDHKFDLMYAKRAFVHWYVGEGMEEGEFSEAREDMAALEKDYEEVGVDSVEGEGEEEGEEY
Target sequence in this assay (P02554 whole entry, chain 2 of 2, further chain): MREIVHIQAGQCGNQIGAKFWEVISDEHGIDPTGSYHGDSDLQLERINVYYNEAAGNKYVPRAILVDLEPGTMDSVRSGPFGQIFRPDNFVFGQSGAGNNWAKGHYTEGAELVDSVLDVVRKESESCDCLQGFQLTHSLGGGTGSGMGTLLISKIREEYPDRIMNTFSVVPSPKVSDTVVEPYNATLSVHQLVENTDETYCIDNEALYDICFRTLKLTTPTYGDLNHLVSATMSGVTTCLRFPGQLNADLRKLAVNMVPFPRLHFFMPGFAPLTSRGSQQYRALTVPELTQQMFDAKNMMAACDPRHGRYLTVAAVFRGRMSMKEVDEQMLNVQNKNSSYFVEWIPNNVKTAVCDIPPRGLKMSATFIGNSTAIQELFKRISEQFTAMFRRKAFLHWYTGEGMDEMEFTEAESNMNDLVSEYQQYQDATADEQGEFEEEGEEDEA

[2] = biological target: microtubules (paclitaxel-stabilized, polymerized from tubulin); experiment: optical tweezers unbinding-force assay (constant-pulling); as a1 but with 1 mM ATP and TCEP (2 mM by the legend) to cleave the disulfide bonds of the stalk helices
Target sequence in this assay (P02550 whole entry, chain 1 of 2): as the sequence (P02550 whole entry, chain 1 of 2) above
Target sequence in this assay (P02554 whole entry, chain 2 of 2, further chain): as the sequence (P02554 whole entry, chain 2 of 2, further chain) above

[3] = biological target: microtubules (paclitaxel-stabilized, polymerized from tubulin); experiment: optical tweezers unbinding-force assay (constant-pulling); as a1 but with 1 mM ATP; non-reducing conditions
Target sequence in this assay (chain, as listed by the source, chain 1 of 2): as the sequence (P02550 whole entry, chain 1 of 2) above
Target sequence in this assay (chain, as listed by the source, chain 2 of 2): as the sequence (P02554 whole entry, chain 2 of 2, further chain) above

[4] = biological target: microtubules (paclitaxel-stabilized, polymerized from tubulin); experiment: single-molecule TIRF dwell-time measurement; zero load; labeled single heads binding to and leaving surface-immobilized Cy5-labeled MTs, 100 ms per frame; apo state (2 U/ml apyrase); 30 mM HEPES, 2 mM MgAc2, 1 mM EGTA, pH 7.2; unbinding rate from an exponential fit of the CDF of dwell times
Target sequence in this assay (chain, as listed by the source, chain 1 of 2): as the sequence (P02550 whole entry, chain 1 of 2) above
Target sequence in this assay (chain, as listed by the source, chain 2 of 2): as the sequence (P02554 whole entry, chain 2 of 2, further chain) above

Substance: AAA1 E/Q Dyn1_(331kDa)-α CL (AAA1 Walker B E/Q; K3077C, A3250C) (from UniProt P36022 1219-4092) (domain or fragment)
mean unbinding force (both directions) [2]: < 1 pN

Substance: GFP-Dyn1_(331kDa), tail-truncated monomeric S. cerevisiae cytoplasmic dynein motor domain (wild type) (from UniProt P36022 1219-4092) (domain or fragment)
mean unbinding force, forward load [1]: 1.6 pN

Substance: Dyn1_(331kDa)-α CL (K3077C, A3250C; stalk helices disulfide cross-linked in the α-registry) (from UniProt P36022 1219-4092) (domain or fragment)
mean unbinding force, forward load [1]: 2.2 pN

The next lines start with the values.

mean unbinding force, backward load [1]: 0.7 pN
mean unbinding force, forward load [1]: 0.7 pN
Substance: Dyn1_(331kDa)-β CL (I3076C, L3247C; stalk helices disulfide cross-linked in the β-registry) (from UniProt P36022 1219-4092) (domain or fragment)

mean unbinding force (both directions) [3]: < 1 pN
Substance: AAA1 E/Q Dyn1_(331kDa) (E/Q mutation in the AAA1 Walker B motif), P36022 1219-4092

average MT-bound time [4]: 290 ms
Substance: SNAP-tagged Dyn1_(331kDa)-β CL (β-mutant heads labeled via an inserted N-terminal SNAP-tag), P36022 1219-4092
